The values that follow come from US20210337838A1, “RECOMBINANT EXPRESSION OF FUMONISIN AMINE OXIDASE” (priority 2018, published 2021).

A short description of data set [1]: Amplex red assay of RID+AO enzyme. The data set is classed as biochemical. As to conditions: 80 nM enzyme, 25 μM FB1, 50 mM HEPES (pH 7), 150 mM NaCl.
Data set [2] in a line: Effect of temperature on fumonisin deamination activity, reverse-phase LC/MS. It counts as biochemical. The following applies: 6 nM enzyme. The method, then: (§1) Activity was measured via reverse-phase LC/MS analysis. […] All proteins were scanned at a concentration of 0.3 mg/ml in buffer containing 20 mM Tris-HCl (pH 7.4), 50 mM NaCl and 0.75 mM DTT. Thermal denaturation was monitored at […] with a temperature scan ranging from 20 to 95° C., increasing by 1° C. per minute with data collection every 30 seconds. Baseline corrected data were converted from millidegrees to mean residue ellipticity, and thermal denaturation curves were produced by nonlinear regression in Graphpad Prism.

Data set [3] in a line: Circular dichroism thermal denaturation. The data set is classed as physicochemical. As to conditions: 0.3 mg/ml, 20 mM Tris-HCl (pH 7.4), 50 mM NaCl, 0.75 mM DTT, monitored at 222, 20 to 95° C. The method, then: as §1
A short description of data set [4]: Ethanol tolerance of deamination activity, reverse phase LC/MS.
A short description of data set [5]: Fumonisin deamination activity of AnFAO with or without excess FAD. It counts as biochemical. The following applies: enzyme dialyzed in 20 mM MES (pH 6), 150 mM NaCl with additional 50 μM FAD. From the text: The whole mass of AnFAO following denaturation and LC-MS analysis was 51,320.70 Da, which matches the predicted mass of the apo-enzyme (51,320.97 Da) as shown in FIG. 12D. […] AnFAO also lacked the requisite Histidine or Tyrosine residues for covalent 6α-linkages to the FAD backbone, as observed in other covalent flavoproteins (Heuts et al., 2009).

For data set [6] the following is noted: 1 μM enzyme, room temperature, 16 h, corn material in water. The method, then:
Following incubation, 700 μls of extraction solution (78% acetonitrile, 2% ethyl acetate) was added to each sample and incubated at 37° C. with shaking for 45 minutes. This mixture was then centrifuged at 20,000×g and 400 μls of the cleared supernatant was mixed with an equal volume of 50% methanol. Samples were then analyzed for fumonisin contamination by reverse phase HPLC-MS as previously described.

Data set [7] is described as follows: FB2 deamination by purified recombinant AnFAO, reverse-phase LC/MS. The following applies: 6 nM enzyme, 1 μM FB2, 0.1 mg/ml catalase, 1 h at 37° C. The data set is classed as biochemical.
Description: In particular, all MS data were collected with a Q-Exactive™ Quadrupole Orbitrap™ mass spectrometer (Thermo Scientific, MA, USA) coupled to an Agilent 1290 ultra-high-performance liquid chromatography (UHPLC) system. Fumonisins were resolved on a Zorbax™ Eclipse Plus Rapid Resolution High Definition (RRHD) C18 column (2.1×50 mm, 1.8 μm; Agilent Technologies, CA, USA), maintained at 35° C. The mobile phase was comprised of water with 0.1% formic acid (A), and acetonitrile with 0.1% formic acid (B) (Optima grade, Fisher Scientific, NJ, USA). The gradient consisted of 0% B for 0.5 min before increasing to 100% over 3 min, held at 100% for 2.5 min and reduced to 0% over 0.5 min. The fumonisins were detected in negative ionization mode using the following electrospray conditions: capillary voltage, 4.0 kV; capillary temperature, 400° C.; sheath gas, 17.00 units; auxiliary gas, 8.00 units; probe heater temperature, 450° C.; S Lens RF level, 45.00. […] The five highest intensity ions from the full scan (excluding isotopes) were sequentially selected using a 1.2 m/z isolation window and analyzed at a resolution of 17,500; AGC target, 1×10^5; max IT, 64 ms; normalized collision energy (NCE) 30; threshold intensity 9.1×10^4; and dynamic exclusion of 1.5 s. Fumonisins were detected by accurate mass (±5 ppm) and retention time (±0.1 min) and verified by MS/MS. […]
The procedure of data set [8]:
(§2) 98 μL of this solution was added to 2 μL of a stock of FB2 in a microfuge tube (2.5 mM) and incubated at 30° C. for 30 mins. At the end of the incubation time, 20 μL of the reaction was diluted with 80 μL of 50 mM HEPES pH 7.0, 150 mM NaCl and 100 μL of this was added in triplicate to wells of a 96-well microplate. 100 μL of Amplex™ red reaction buffer consisting of 50 mM HEPES pH 7.0, 150 mM NaCl, 200 μM Amplex™ red, 2 U/ml horseradish peroxidase was immediately added to each well and absorbance was measured at 571 nm. Rates were calculated based on an H2O2 standard curve and the incubation time taking into account the dilution factors. […] 100 μL of protein sample was added to wells in triplicate in a 96-well microplate. 100 μL of Amplex™ red reaction buffer consisting of 50 mM HEPES pH 7.0, 200 μM Amplex™ red, 2 U/ml horseradish peroxidase and 50 μM FB2 was then added to each well and absorbance was monitored at 571 nm every 10 mins for 1 hr. A standard curve consisting of 0-10 μM H2O2 was included to determine the absorbance for every pmol of H2O2 generated by the reaction.

A short description of data set [9]: NaCl dependence of fumonisin deamination activity, Amplex red. The data set is classed as biochemical. On the procedure:
as §2

Like-named read-outs stand apart in the source and are kept apart here.

B1: RID+AO: GST-tagged 597 amino acid A. niger enzyme with N-terminal Reactive Intermediate Deaminase domain and C-terminal amine oxidase domain (protein)
chain: MAPAPVLATSAYYAPGVVSSASKYLHVSGQPGTIEGTAPADYNSQIHLALVNLHRVLAATGATPRDVVKLTLYIVDYDPNNRLHTRPLQTWLAGHKPAITLVPVPQLAVPDWKFEIEATVAVPDSIPASLSLPSPTETTDVLVIGAGLSGLMAAETTLQSGHSCIVLEGRDRVGGKTWTCPLPSGTGVVDLGAAWINDTNQSMMYELARRAGADLIEQNTTGNCLLQREDGAITAFPYGQTPCITPQIVKEIEAIRDTAEQDCQSFSTSRPQSPALDSLSFLAYLHSRNASPIAAANASVWTRAMLGQEPQDISALYFLNYCKSGGGLLQMRSDRKHGAQYLRVRQGTQIFAKTLAESLPTDTIRFGQRVVGITQVQKGVNYVQTESGLVVKARKVICSVPTPVLKTIKFEPQLPAAKQLLVDSFRYGYYTKVMLSFRTAWWADRGFCGLAQSFVGPASIYRDTSSPEDGKWVLTAFLAGDAGRNWSALGSQRERELALLEQLGAIYGDKDLPKREFVEALGHEWSTEELSGWGCPCPALPPGVLTLAGDALREPFRDVHFVGTETAEEWKGYMEGAVRSGKRGAAEAVKGLTRSQL
modifications: GST tag; Aspergillus niger
Take B1: the activity towards fumonisins entry in data set [1] was “no activity”.

B2: AnFAO_15309 (protein)
chain: MSVSNDPTTKLYDAVIVGAGLSGLQAAHSIQAAGFSVCILEATDRMGGKTLTVKSSEKGYNDLGAAWVNDTNQTEIFKLHQRYGLDGVVQYTCGDDILESGEGVIRKIPYGLPLTGLPKKLLDILRIESSRLDLDDPTSFPGATEVDNLTFRDFCVEKTGSEDVIHITDAISTALLGLNSNELSALYMLYYFKSGSGIDNLLSDERDGAQYLRTRQGTQTIARKMADELTQSDIFLGMPVTSINQTDADAHCVVQTLDGSSFRCRRVIVSIPTTLYRSVSFHPPLPHAKQVLSDHTIMGYYSKVIFIFKEPWWRDAGLTGIVNCAGGPITFTRDTSVPTDDQWSITCFMVGSRGRAWSKLSKDDRYSQVWEQFRRCFEEFVENIPEPVNTLEMEWSKEPYFLGAPCPAMIPGLLTTAGSDLAAPHGKVHFIGTETSTVWRGYMEGAIRAGQRGGAEVVTALQED
modifications: codon-optimized; AnFAO_15309 codon optimized for Saccharomyces cerevisiae
Turning to B2, in [2] (2 μM FB2), the “optimal temperature of FB2 deamination” value is 50 °C. For the same molecule, the “of maximal activity at 21° C.” value in [2] (2 μM FB2, 21° C.) was “ca. 35%”. Moreover, the “of maximal activity at 60° C.” value in data set [2] (2 μM FB2, 60° C.) is on record as 52%. In [2] (2 μM FB2, 95° C.), the “activity at 95° C.” value is reported as “No activity”. This molecule gave a melting temperature in data set [3] of 71 °C. Moreover, the “activity remaining at 5% EtOH” value in [4] (10 nM enzyme, 1 μM FB2, 30 minutes at 37° C., 5% EtOH) was 71%. For the same molecule, the “activity remaining at 10% EtOH” value in data set [4] (10 nM enzyme, 1 μM FB2, 30 minutes at 37° C., 10% EtOH) is reported as 43%. Moreover, the “activity remaining at 20% EtOH” value in data set [4] (10 nM enzyme, 1 μM FB2, 30 minutes at 37° C., 20% EtOH) worked out at 12%. Also, the “deamination activity at 30% EtOH” value in data set [4] (30% EtOH) is reported as “Negligible amounts”. Further, in [4] (40% EtOH), the “deamination activity at 40% EtOH” value is reported as “Negligible amounts”. Moreover, the “change in fumonisin deamination activity with additional FAD” value in data set [5] was “No difference”. Besides, the entries for the “intact fumonisins remaining after treatment” value in data set [6] and in [6] (listed as AnFAO) were “no intact fumonisins remained” and “No intact fumonisin remained”, respectively. Further, in [7], the “conversion of FB2 into FPy2” value is recorded as “Full conversion”. Moreover, the “optimal pH of activity” value in data set [8] (300 nM enzyme, FB2, 30° C., 30 mins) is listed as 6. Besides, the “activity remaining at pH 3.5” value in [8] (Citrate pH 3.5) is “ca. 20%”. Also, the “activity remaining at pH 9.0” value in [8] (Pyrophosphate pH 9) was “ca. 30%”. For the same molecule, the “of maximum activity at 0 mM NaCl” value in [9] (0 mM NaCl) is recorded as 70%. In addition, the “NaCl concentration of optimal activity” value in data set [9] (50 mM HEPES pH 7.0, FB2) was 50 mM. Moreover, in data set [9] (1 M NaCl), the “of maximum activity at 1 M NaCl” value is 66%.
